In publication PMC4661386 one finds Kd data, which are given here for one molecule.

The target in this experiment is CUB_C (CUB module and C-terminal peptide from human TSG-6), wild type (human) (UniProt P98066). The experiment can be described thus: SPR; CUB_C (WT or E183S) amine-coupled to a CM5 chip (~1000 RU); rHC1 (WT or D298A) injected at 30 ul/min in 20 mM HEPES, 150 mM NaCl, 0.05% Tween 20, pH 7.4 (HBS-T), no EDTA (as purified CUB_C contains Ca2+); multicycle kinetics, 1:1 Langmuir model.

B1: Recombinant human heavy chain 1 (rHC1) of inter-alpha-inhibitor, wild type (natural protein)
chain: SKSSEKRQAVDTAVDGVFIRSLKVNCKVTSRFAHYVVTSQVVNTANEAREVAFDLEIPKTAFISDFAVTADGNAFIGDIKDKVTAWKQYRKAAISGENAGLVRASGRTMEQFTIHLTVNPQSKVTFQLTYEEVLKRNHMQYEIVIKVKPKQLVHHFEIDVDIFEPQGISKLDAQASFLPKELAAQTIKKSFSGKKGHVLFRPTVSQQQSCPTCSTSLLNGHFKVTYDVSRDKICDLLVANNHFAHFFAPQNLTNMNKNVVFVIDISGSMRGQKVKQTKEALLKILGDMQPGDYFDLVLFGTRVQSWKGSLVQASEANLQAAQDFVRGFSLDEATNLNGGLLRGIEILNQVQESLPELSNHASILIMLTDGDPTEGVTDRSQILKNVRNAIRGRFPLYNLGFGHNVDFNFLEVMSMENNGRAQRIYEDHDATQQLQGFYSQVAKPLLVDVDLQYPQDAVLALTQNHHKQYYEGSEIVVAGRIADNKQSSFKADVQAHGEGQEFSITCLVDEEEMKKLLRERGHMLENHVERLWAYLTIQELLAKRMKVDREERANLSSQALQMSLDYGFVTPLTSMSIRGMADQDGLKPTIDKPSEDSPPLEMLGPRRTFVLSALQPSPTHSSSNTQRLPDRVTGVDTD
What is called Kd is the constant that tells how readily two partners part at equilibrium. Take B1: the dissociation constant (Kd) turned out to be 2.1 nM.
